This note sets out measurements from patent US20060034863A1 (CHEMOCENTRYX, published 2006).

A word on the IC50: it is the concentration needed to halve the response being measured.

In experiment [1] the target is T1, human chemokine receptor CCR1 (human, UniProt P32246 1-355).
T1 construct: whole, on cells; also called HEK293-CCR1 transfectants
T1 sequence (looked up): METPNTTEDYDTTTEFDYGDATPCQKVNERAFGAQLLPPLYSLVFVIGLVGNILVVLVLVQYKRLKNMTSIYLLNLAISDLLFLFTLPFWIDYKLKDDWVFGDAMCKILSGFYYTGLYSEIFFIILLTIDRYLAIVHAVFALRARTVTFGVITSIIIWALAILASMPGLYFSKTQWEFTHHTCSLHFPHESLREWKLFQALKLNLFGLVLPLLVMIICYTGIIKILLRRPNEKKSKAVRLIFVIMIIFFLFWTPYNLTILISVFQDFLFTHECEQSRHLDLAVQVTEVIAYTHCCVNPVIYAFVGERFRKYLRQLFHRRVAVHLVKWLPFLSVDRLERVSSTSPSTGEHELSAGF
Briefly: displacement of 125I-MIP-1α from HEK293-CCR1 cells, filter binding, 3 h at 4°C. The procedure: (§1) The binding characteristics of CCL23 variants was compared in human CCR1 expressing cells. […] Reactions mixtures were aspirated onto PEI-treated GF/B glass filters using a cell harvester (Packard). The filters were washed twice (25 mM HEPES, 500 mM NaCl, 1 mM CaCl₂, 5 mM MgCl₂, adjusted to pH 7.1). Scintillant (MicroScint-10; 35 μl) was added to dried filters and the filiters counted in a Packard Topcount scintillation counter. Data were analyzed and plotted using Prism software (GraphPad Software, San Diego, Calif.).
A general note: Loss of bound radioactivity is the signal in a displacement assay; it reports binding, not function.

Experiment [2] deals with T2, formyl peptide receptor like 1 (FPRL1) (human, UniProt P25090 1-351).
T2 construct: whole, on cells; also called FPRL1-L1.2 transfectants; L1.2 FPRL1 Cells
T2 sequence (looked up): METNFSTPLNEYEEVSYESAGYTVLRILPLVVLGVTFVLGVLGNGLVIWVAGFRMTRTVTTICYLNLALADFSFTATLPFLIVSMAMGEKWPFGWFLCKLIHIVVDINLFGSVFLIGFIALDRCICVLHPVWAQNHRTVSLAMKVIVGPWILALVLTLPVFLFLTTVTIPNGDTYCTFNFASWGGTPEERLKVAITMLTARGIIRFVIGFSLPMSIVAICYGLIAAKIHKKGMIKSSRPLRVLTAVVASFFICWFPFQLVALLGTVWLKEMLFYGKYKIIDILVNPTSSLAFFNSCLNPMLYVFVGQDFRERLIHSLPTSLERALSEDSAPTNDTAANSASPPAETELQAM
Briefly: 125I-WKYMVm displacement on FPRL1-L1.2 transfectants and human monocytes. An excerpt: (§2) The IC50 for each interaction was derived from non-linear least squares curve fitting of the data by using Prism software (GraphPad Software).

Experiment [3] has as its target MIP-1α binding sites on human monocytes (human). Briefly: displacement of 125I-MIP-1α from human monocytes, filter binding.
The target in experiment [4] is T2, formyl peptide receptor like 1 (FPRL1). Briefly: cell-based or functional assay.
For experiment [5], the target named is T1, human chemokine receptor CCR1. Briefly: displacement of 125I-MIP-1α from HEK293-CCR1 cells. As to the method: as §1
The target in experiment [6] is T2, formyl peptide receptor like 1 (FPRL1). Briefly: cell-based or functional assay. This is another data set of the same source.
For experiment [7] the target is unchanged. Briefly: displacement of 0.01 nM 125I-WKYMVm from human monocytes, 3 h at 4°C.
Excerpt: as §2

For experiment [8] the target is unchanged. Briefly: displacement of 0.01 nM 125I-WKYMVm from L1.2 FPRL1 cells, 3 h at 4°C.
Excerpt: as §2

In experiment [9] the target is MIP-1α binding sites on human monocytes (human). Briefly: 125I-MIP-1α competition binding on human monocytes against HEK293-CCR1 cells.

B1: CKβ8(1-99) (ligand)
chain: RVTKDAETEFMMSKLPLENPVLLDRFHATSADCCISYTPRSIPCSLLESYFETNSECSKPGVIFLTKKGRRFCANPSDKQVQVCMRMLKLDTRIKTRKN
notes: Human recombinant chemokine bought from R&D Systems; also called CCL23 variant; CKβ (1-99)
For B1, the results for the IC50 in experiment [1] and in experiment [3] were 64 nM and 10.3 nM, respectively. Moreover, in experiment [2], the binding result was “no binding”.

MLWRRKIGPQMT [SHAAGtide truncated variant CCXP5 (SEQ ID NO: 5)]: the “Induction of Calcium Flux in FPRL1 L1.2 Cells (IC 50)” value (“Induction of Calcium Flux” for short) in [4] was determined as 7.4 nM.

On to MLWRRKIGPQMTLSHAAG [SHAAGtide (SEQ ID NO: 1)], for which the “Induction of Calcium Flux” value in [4] was determined as 150 nM.

Regarding MLWRRKIGPQMTLSHAAY [SHAAYtide (SEQ ID NO: 6)], in experiment [4], the “Induction of Calcium Flux” value is 38 nM.

B2: CKβ8(25-99) (ligand)
chain: RFHATSADCCISYTPRSIPCSLLESYFETNSECSKPGVIFLTKKGRRFCANPSDKQVQVCMRMLKLDTRIKTRKN
notes: Human recombinant chemokine bought from R&D Systems; also called CCL23 variant; CKβ (25-99)
As to B2, the figures for the IC50 in experiment [1] and in experiment [3] were 1.34 nM and 0.25 nM, respectively. Besides, the “fold IC50 change against CKβ8(1-99)” value in experiment [5] stood at 40 fold. Besides, the binding result in experiment [2] is recorded as “no binding”.

Turning to MLWRRKIGPQM [SHAAGtide truncated variant CCXP8 (SEQ ID NO: 8)], in experiment [4], the “Induction of Calcium Flux” value came to 45 nM.

For MLWRRKIGPQMTLSH [SHAAGtide truncated variant CCXP3 (SEQ ID NO: 3)], the “Induction of Calcium Flux” value in [4] is 68 nM.

B3: CKβ8-1(25-116) (ligand)
chain: MLWRRKIGPQMTLSHAAGFHATSADCCISYTPRSIPCSLLESYFETNSECSKPGVIFLTKKGRRFCANPSDKQVQVCMRMLKLDTRIKTRKN
notes: Human recombinant chemokine bought from R&D Systems; NH2-terminal truncated form of CKβ8-1; also called CCL23 variant
In the case of B3, the “EC50 of calcium flux dose response in FPRL1-L1.2 transfectants” value in experiment [6] fell in the range of 10 to 20 nM. Also, the IC50 in [7] worked out at 31 nM; in experiment [8], 196 nM; in experiment [1], 112 nM; in [3] it was 5.1 nM. Also, in experiment [9], the fold higher MIP-1α displacement activity on monocytes than on HEK293-CCR1 cells is > 10 fold. Also, the “fold IC50 change against CKβ8-1(1-116)” value in [5] worked out at 1 fold. Also, the “Induction of Calcium Flux” value in [4] stood at 11 nM.

B4: CKβ8-1(1-116) (ligand)
chain: RVTKDAETEFMMSKLPLENPVLLDMLWRRKIGPQMTLSHAAGFHATSADCCISYTPRSIPCSLLESYFETNSECSKPGVIFLTKKGRRFCANPSDKQVQVCMRMLKLDTRIKTRKN
notes: Human recombinant chemokine bought from R&D Systems; also called CCL23 variant
On to B4, for which the IC50 in [1] was determined as 206 nM; in [3], 55 nM. In experiment [2], the binding result is given as “no binding”.

B5: MIP-1α (ligand, human, UniProt P10147 27-92, looked up)
chain: ADTPTACCFSYTSRQIPQNFIADYFETSSQCSKPGVIFLTKRSRQVCADPSEEWVQKYVSDLELSA
notes: also called macrophage inflammatory protein
For B5, the IC50 was 0.54 nM in [1] and 0.27 nM in experiment [3].

Consider RRKIGPQMTLSHAAG [SHAAGtide truncated variant CCXP2 (SEQ ID NO: 2)], for which the “Induction of Calcium Flux” value in experiment [4] was > 50000 nM.
